Patent publication US20090111104A1, “Method for Monitoring Hydrolytic Activity” (Fluorotechnics Pty Limited, priority 2005, published 2009)

Legend:
Assay type in all cases: biochemical, bovine
carbonic anhydrase (CA) = target: T1, carbonic anhydrase (CA) (Bos taurus, UniProt P00921); test: Real-time monitoring of tryptic digestion of carbonic anhydrase using epicocconone with and without SDS
T1 construct: purchased Sigma-Aldrich C7025
Method: • 1 Trypsin digestion was carried out in bicine buffer (pH 8.4) • 2 Protein samples were prepared in 10 mg/mL in 100 mM bicine buffer. • 3 One hundred microliter of the protein sample was used for trypsin digestion.
• 4. The 100 μL of protein samples was reduced by adding 1 μL of 10% SDS and 5 μL of DTT stock for 10 min at 80° C. • 5. Another sample was reduced with only 5 μL of DTT stock for 10 min at 80° C. (no SDS) • 3 The samples were alkylated by adding 4 μL of the iodoacetamide stock at room temperature for 45 min-1 hr. • 4 The remaining iodoacetamide of the samples were neutralised by adding 20 μL of the DTT at room temp for 45 min-1 hr. […] Fluorescence development was monitored in real time every 2 minutes up to 400 minutes using FluoStar (Ex/Em=540±10/[…]±10). • 16. […]
Progress curves were fitted as per Example 6. […] In the presence of a non-denaturing quantity of detergent (open squares) carbonic anhydrase (CA) becomes more hydrophobic and has an increase in fluorescence when exposed to a fluorophore that is sensitive to its environment such as epicocconone. Upon addition of trypsin, the fluorescence drops as per Example 6 but in the sample with no SDS (inverted triangles) the change in fluorescence is reduced by more than 50% compared to in the presence of SDS (open circles). […]

BSA [1] = target: T2, BSA (Bos taurus, UniProt P02769); test: SDS-PAGE validation of BSA proteolysis in the presence of different fluorophores (Example 7); details: after 120 minutes
T2 construct: purchased Sigma-Aldrich A3059
T2 sequence (P02769 25-607): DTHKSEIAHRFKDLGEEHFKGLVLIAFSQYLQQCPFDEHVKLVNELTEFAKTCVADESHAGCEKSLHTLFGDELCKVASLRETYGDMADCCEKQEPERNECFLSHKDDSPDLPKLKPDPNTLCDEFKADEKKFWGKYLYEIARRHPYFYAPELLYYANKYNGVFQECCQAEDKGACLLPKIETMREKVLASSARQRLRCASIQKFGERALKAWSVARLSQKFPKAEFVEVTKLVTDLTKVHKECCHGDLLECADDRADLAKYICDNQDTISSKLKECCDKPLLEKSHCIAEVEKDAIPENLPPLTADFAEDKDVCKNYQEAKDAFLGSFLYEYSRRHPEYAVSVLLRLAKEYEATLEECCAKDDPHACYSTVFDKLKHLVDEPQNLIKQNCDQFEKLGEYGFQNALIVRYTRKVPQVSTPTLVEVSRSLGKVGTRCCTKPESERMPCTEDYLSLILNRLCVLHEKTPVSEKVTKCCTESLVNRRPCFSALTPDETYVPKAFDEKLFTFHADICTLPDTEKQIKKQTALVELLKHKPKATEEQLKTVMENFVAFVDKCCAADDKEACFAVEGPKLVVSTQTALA
Excerpt: The normalised data were used for Prism analysis for obtaining the rate constants. In each case, the protein with fluorophore (open squares) is fitted to a single phase exponential decay (Y=span*exp(−kX)+plateau) and the value for k used as the fixed value for k1 in a two phase exponential decay (Y=span1*exp(−k1X)+span2*exp(−k2X)+plateau) for the protein plus papain (open circles). Through this method it was possible to measure the rate constants for hydrolysis and predict the time point for complete hydrolysis. […] It can be seen from this figure that the bands associated with the protein have disappeared after 120 minutes and that only a faint band for residual papain or trypsin can be seen. In some cases there are also some larger peptide fragments remaining after digestion that are resistant to further hydrolysis.

BSA [2] = target: T2, BSA; test: Tryptic digestion of BSA followed with Nile Red; details: Nile Red reporter dye
Method: • As per Example 2 above. • Nile Red (20 mM in ethanol, Sigma-Aldrich, 73189) diluted to 100-fold in 50 mM bicine
As per Example 2 except the Fluorostar plate reader was set to 520 nm excitation and 630 (±10 nm) bandpass emission filter.

T1 sequence (P00921 whole entry): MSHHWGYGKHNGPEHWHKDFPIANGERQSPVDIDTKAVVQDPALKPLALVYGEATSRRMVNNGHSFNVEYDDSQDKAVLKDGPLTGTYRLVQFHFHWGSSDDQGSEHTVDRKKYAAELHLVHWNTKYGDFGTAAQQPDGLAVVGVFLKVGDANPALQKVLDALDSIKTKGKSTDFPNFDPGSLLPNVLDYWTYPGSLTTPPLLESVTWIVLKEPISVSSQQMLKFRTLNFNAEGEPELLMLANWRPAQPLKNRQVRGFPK

observed rate constant (carbonic anhydrase (CA); with SDS): 0.025 min⁻¹
observed rate constant (carbonic anhydrase (CA); without SDS): 0.025 min⁻¹
digestion of BSA by SDS-PAGE (BSA [1]): complete digestion
apparent first order rate constant for tryptic digestion (BSA [2]): 0.1302 min⁻¹
B1: trypsin: Proteomics grade trypsin protease, Sigma-Aldrich T6567 (protein, UniProt P00761 9-231, looked up)
Trypsin: IVGGYTCAANSIPYQVSLNSGSHFCGGSLINSQWVVSAAHCYKSRIQVRLGEHNIDVLEGNEQFINAAKIITHPNFNGNTLDNDIMLIKLSSPATLNSRVATVSLPRSCAAAGTECLISGWGNTKSSGSSYPSLLQCLKAPVLSDSSCKSSYPGQITGNMICVGFLEGGKDSCQGDSGGPVVCNGQLQGIVSWGYGCAQKNKPGVYTKVCNYVNWIQQTIAAN
